# Measured values from US20250320281A1.
# Key:
# Experiment in all cases: cell-based or functional assay
# [1] = biological target: HIV-1 MGRM-D-018 Env (HIV-1)
# [2] = biological target: HIV-1 92TH021 Env (HIV-1)
# [3] = biological target: HIV-1 MGRM-AG-005 Env (HIV-1)
# [4] = biological target: HIV-1 92UG005 Env (HIV-1)
# [5] = biological target: HIV-1 92BR020 Env (HIV-1)
# HIV-1 APV6 Env (HIV-1) = biological target: HIV-1 APV6 Env (HIV-1)
# [6] = biological target: HIV-1 Env of isolate 94UG103 (pseudovirus) (HIV-1)
# [7] = biological target: HIV-1 APV6 envelope glycoprotein (Env) on pseudovirus (HIV-1 isolate APV6 (clade B))
# [8] = biological target: HIV-1 NL43 envelope glycoprotein (Env) on pseudovirus (HIV-1 isolate NL43 (clade B))
# [9] = biological target: HIV-1 MGRM-C-026 envelope glycoprotein (Env) on pseudovirus (HIV-1 isolate MGRM-C-026 (clade C))
# [10] = biological target: HIV-1 94UG103 envelope glycoprotein (Env) on pseudovirus (HIV-1 isolate 94UG103 (clade A))
# [11] = biological target: HIV-1 Env of pseudovirus MGRM-AG-009 (subtype AG) (HIV-1)
# [12] = biological target: HIV-1 Env of isolate MGRM-F1-010 (HIV-1)
# [13] = biological target: HIV-1 Env of isolate MGRM-F1-006 (HIV-1)
# [14] = biological target: HIV-1 Env of isolate MGRM-F1-008 (HIV-1)
# [15] = biological target: HIV-1 Env of isolate MGRM-F1-023 (clade F pseudovirus) (HIV-1)
# [16] = biological target: HIV-1 Env of isolate MGRM-F1-014 (clade F), on pseudovirus (HIV-1)
# [17] = biological target: HIV-1 Env of pseudovirus 92UG037 (subtype A) (HIV-1)
# [18] = biological target: HIV-1 Env of isolate MG RM-D-021 (clade D), on pseudovirus (HIV-1)
# [19] = biological target: HIV-1 Env of isolate THRO.18 (clade B pseudovirus) (HIV-1)
# [20] = biological target: HIV-1 Env of isolate DU422 (clade C pseudovirus) (HIV-1)
# [21] = biological target: HIV-1 Env of isolate ZM233 (clade C pseudovirus) (HIV-1)
# [22] = biological target: HIV-1 Env of isolate ZM249 (clade C pseudovirus) (HIV-1)
# [23] = biological target: HIV-1 MGRM-A-010 Env (pseudovirus) (HIV-1 isolate MGRM-A-010 (clade A))
# [24] = biological target: HIV-1 MGRM-C-027 Env (pseudovirus) (HIV-1 isolate MGRM-C-027 (clade C))
# [25] = biological target: HIV-1 92UG024 Env (pseudovirus) (HIV-1 isolate 92UG024 (clade D))
# [26] = biological target: HIV-1 MGRM-C-026 Env (pseudovirus) (HIV-1 isolate MGRM-C-026 (clade C))
# [27] = biological target: HIV-1 APV13 Env (pseudovirus) (HIV-1 isolate APV13 (clade B))
# [28] = biological target: HIV-1 MGRM-D-001 Env (pseudovirus) (HIV-1 isolate MGRM-D-001 (clade D))
# [29] = biological target: HIV-1 APV6 Env (pseudovirus) (HIV-1 isolate APV6 (clade B))
# [30] = biological target: HIV-1 CMU02 Env (pseudovirus) (HIV-1 isolate CMU02 (clade AE))
# [31] = biological target: HIV-1 92TH021 Env (pseudovirus) (HIV-1 isolate 92TH021 (clade AE))
# [32] = biological target: HIV-1 MGRM-AG-005 Env (pseudovirus) (HIV-1 isolate MGRM-AG-005 (clade AG))
# Chain of 1443_C16 (PG16) (TCN-116) (antibody) (VH): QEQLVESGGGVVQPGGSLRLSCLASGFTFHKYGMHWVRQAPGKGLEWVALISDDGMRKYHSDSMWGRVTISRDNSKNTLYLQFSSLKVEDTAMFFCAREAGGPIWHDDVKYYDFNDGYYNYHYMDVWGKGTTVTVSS
# Chain of 1443_C16 (PG16) (TCN-116) (antibody) (VL): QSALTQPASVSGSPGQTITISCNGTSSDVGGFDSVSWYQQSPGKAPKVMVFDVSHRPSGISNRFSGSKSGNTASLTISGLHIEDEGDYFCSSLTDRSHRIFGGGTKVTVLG
substance,measurement,setting,value
4877_D15 (PGT-122) (antibody),"Neutralization by PGT-122, IC50",[1],0.0115 µg/mL
same,"Neutralization by PGT-122, IC80",[1],0.035 µg/mL
same,"Neutralization by PGT-122, IC90",[1],0.0674 µg/mL
same,"Neutralization by PGT-122, IC95",[1],0.125 µg/mL
same,"Neutralization by PGT-122, IC50",[2],> 10 µg/mL
same,"Neutralization by PGT-122, IC80",[2],> 10 µg/mL
same,"Neutralization by PGT-122, IC90",[2],> 10 µg/mL
same,"Neutralization by PGT-122, IC95",[2],> 10 µg/mL
same,"Neutralization by PGT-122, IC50",[3],> 10 µg/mL
same,"Neutralization by PGT-122, IC80",[3],> 10 µg/mL
same,"Neutralization by PGT-122, IC90",[3],> 10 µg/mL
same,"Neutralization by PGT-122, IC95",[3],> 10 µg/mL
same,"Neutralization by PGT-122, IC50",[4],> 10 µg/mL
same,"Neutralization by PGT-122, IC80",[4],> 10 µg/mL
same,"Neutralization by PGT-122, IC90",[4],> 10 µg/mL
same,"Neutralization by PGT-122, IC95",[4],> 10 µg/mL
same,"Neutralization by PGT-122, IC50",[5],0.0337 µg/mL
same,"Neutralization by PGT-122, IC80",[5],0.0929 µg/mL
same,"Neutralization by PGT-122, IC90",[5],0.168 µg/mL
same,"Neutralization by PGT-122, IC95",[5],0.289 µg/mL
same,"Neutralization by PGT-122, IC50",HIV-1 APV6 Env (HIV-1),0.0851 µg/mL
same,"Neutralization by PGT-122, IC80",HIV-1 APV6 Env (HIV-1),0.351 µg/mL
same,"Neutralization by PGT-122, IC90",HIV-1 APV6 Env (HIV-1),0.779 µg/mL
same,"Neutralization by PGT-122, IC95",HIV-1 APV6 Env (HIV-1),1.55 µg/mL
4858_P08 (PGT-123) (antibody),Primary Neutralization Index (B cell culture supernatant),[6],1.1
1496_C09 (PG9) (TCN-109) (antibody),neutralization IC50,[7],0.214 µg/mL
same,neutralization IC80,[7],1.13 µg/mL
same,neutralization IC90,[7],3.21 µg/mL
same,neutralization IC95,[7],9.65 µg/mL
same,neutralization IC50,[8],0.687 µg/mL
same,neutralization IC50,[9],0.113 µg/mL
same,neutralization IC50,[10],0.31 µg/mL
same,neutralization IC80,[10],1.95 µg/mL
same,neutralization IC90,[10],5.54 µg/mL
VRC01 (antibody),"IC50, pseudovirus neutralization",[11],> 50 µg/mL
same,IC50,[12],0.097 µg/mL
same,IC50,[13],2.86 µg/mL
same,IC50,[14],1.11 µg/mL
PGV04 (antibody),"IC50 (µg/mL), pseudovirus neutralization",[15],0.171 µg/mL
same,"IC50 (µg/mL), pseudovirus neutralization",[16],0.02 µg/mL
same,"IC50, pseudovirus neutralization",[17],0.145 µg/mL
same,"IC50 (µg/mL), pseudovirus neutralization",[18],> 50 µg/mL
1443_C16 (PG16) (TCN-116) (antibody),"IC50 (neutralization, TZM-bl pseudovirus assay)",[19],2.19 µg/mL
same,"IC50 (neutralization, TZM-bl pseudovirus assay)",[20],0.59 µg/mL
same,"IC50 (neutralization, TZM-bl pseudovirus assay)",[21],< 0.01 µg/mL
same,"IC50 (neutralization, TZM-bl pseudovirus assay)",[22],< 0.01 µg/mL
5123_A06 (PGT-125) (antibody),"Neutralization by PGT-125, IC50",[23],0.0055 µg/mL
same,"Neutralization by PGT-125, IC80",[23],0.024 µg/mL
same,"Neutralization by PGT-125, IC90",[23],0.0575 µg/mL
same,"Neutralization by PGT-125, IC95",[23],0.131 µg/mL
same,"Neutralization by PGT-125, IC50",[24],> 10 µg/mL
same,"Neutralization by PGT-125, IC80",[24],> 10 µg/mL
same,"Neutralization by PGT-125, IC90",[24],> 10 µg/mL
same,"Neutralization by PGT-125, IC95",[24],> 10 µg/mL
same,"Neutralization by PGT-125, IC50",[25],> 10 µg/mL
same,"Neutralization by PGT-125, IC80",[25],> 10 µg/mL
same,"Neutralization by PGT-125, IC90",[25],> 10 µg/mL
same,"Neutralization by PGT-125, IC95",[25],> 10 µg/mL
same,"Neutralization by PGT-125, IC50",[26],0.0106 µg/mL
same,"Neutralization by PGT-125, IC80",[26],0.035 µg/mL
same,"Neutralization by PGT-125, IC90",[26],0.0705 µg/mL
same,"Neutralization by PGT-125, IC95",[26],0.134 µg/mL
same,"Neutralization by PGT-125, IC50",[27],0.0128 µg/mL
same,"Neutralization by PGT-125, IC80",[27],0.0414 µg/mL
same,"Neutralization by PGT-125, IC90",[27],0.0821 µg/mL
same,"Neutralization by PGT-125, IC95",[27],0.154 µg/mL
same,"Neutralization by PGT-125, IC50",[28],2.31 µg/mL
same,"Neutralization by PGT-125, IC80",[28],> 10 µg/mL
same,"Neutralization by PGT-125, IC90",[28],> 10 µg/mL
same,"Neutralization by PGT-125, IC95",[28],> 10 µg/mL
same,"Neutralization by PGT-125, IC50",[29],0.0359 µg/mL
same,"Neutralization by PGT-125, IC80",[29],0.133 µg/mL
same,"Neutralization by PGT-125, IC90",[29],0.288 µg/mL
same,"Neutralization by PGT-125, IC95",[29],0.597 µg/mL
same,"Neutralization by PGT-125, IC50",[30],> 10 µg/mL
same,"Neutralization by PGT-125, IC80",[30],> 10 µg/mL
same,"Neutralization by PGT-125, IC90",[30],> 10 µg/mL
same,"Neutralization by PGT-125, IC95",[30],> 10 µg/mL
same,"Neutralization by PGT-125, IC50",[31],0.0066 µg/mL
same,"Neutralization by PGT-125, IC80",[31],0.0292 µg/mL
same,"Neutralization by PGT-125, IC90",[31],0.0701 µg/mL
same,"Neutralization by PGT-125, IC95",[31],0.157 µg/mL
same,"Neutralization by PGT-125, IC50",[32],> 10 µg/mL
same,"Neutralization by PGT-125, IC80",[32],> 10 µg/mL
same,"Neutralization by PGT-125, IC90",[32],> 10 µg/mL
same,"Neutralization by PGT-125, IC95",[32],> 10 µg/mL
